Target: SARS-CoV-2 XBB.1.16 RBD protein (SARS-CoV-2 Omicron XBB.1.16, strain)
Assay: BLI

B1: CYFN1006-1 (antibody, V domains shown)
VH: QMQLVQSGAEVKKPGESLKISCKGSGYTFSYYWIGWVRQMPGKGLEWMGIIYPGDSDTRYSPSFQGQVTISADKSISTAYLHWSSLKASDTAMYYCARQGDLGDWILLGYWGQGTLVTVSS
VL: QSALTQPRSVSGSLGQSVTISCTGISSDVGGDNYVSWYQQHPGKAPKLMIYDVSKRPSGVPDRFSGSKSGNTASLTISGLQADDEADYYCCSYALSRVVFGGGTMLTVL
**Q.** Which Kd does the source give for B1 here?
**A.** 1.37 nM

From publication PMC11885566 (Communications Biology, 2025)
